Reference: the supplement of paper PMC9112550, “Optimization of the antimicrobial peptide Bac7 by deep mutational scanning” (BMC Biology, 2022)

The sequences below were run on Escherichia coli TOP10 (assay: shrunken log2 fold change of peptide-encoding DNA abundance (4.5 h post-induction vs induction); higher = less antimicrobial activity (less host growth inhibition)). Conditions: time post-induction: 4.5 h; library: site-saturation at positions 5, 18, 19, 20.
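Note: peptides expressed intracellularly from a pBAD plasmid library in pooled LB shake-flask culture, induced with 0.3% L-arabinose, DNA abundance read by NGS, three biological replicates, DESeq2 with apeglm shrinkage.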

| Sequence | shrunken log2 fold change |
| --- | --- |
| RRIRDRPPRLPRPRPRPTQGPRP | 0.797 |
| RRIRSRPPRLPRPRPRPFCNPRP | -0.106 |
| RRIRQRPPRLPRPRPRPLRDPRP | 0.082 |
| RRIRPRPPRLPRPRPRPAHPPRP | 0.273 |
| RRIRGRPPRLPRPRPRPMLWPRP | 0.737 |
| RRIRERPPRLPRPRPRPLFQPRP | -0.271 |
| RRIRPRPPRLPRPRPRPMTNPRP | -0.184 |
| RRIRARPPRLPRPRPRPQFGPRP | -0.217 |
| RRIRIRPPRLPRPRPRPTATPRP | 0.0371 |
| RRIRQRPPRLPRPRPRPITWPRP | 0.129 |
| RRIRCRPPRLPRPRPRPQIMPRP | -0.352 |
| RRIRHRPPRLPRPRPRPKDFPRP | -0.0494 |
| RRIRPRPPRLPRPRPRPMFSPRP | -0.295 |
| RRIRDRPPRLPRPRPRPRWQPRP | 0.0899 |
| RRIRTRPPRLPRPRPRPILYPRP | -0.275 |
| RRIRDRPPRLPRPRPRPENTPRP | 0.17 |
| RRIRSRPPRLPRPRPRPWIQPRP | -0.00956 |
| RRIRGRPPRLPRPRPRPGEMPRP | 1.31 |
| RRIRLRPPRLPRPRPRPPRQPRP | 0.688 |
| RRIRHRPPRLPRPRPRPIDKPRP | 0.0156 |
| RRIRCRPPRLPRPRPRPYSDPRP | -0.0426 |
| RRIRSRPPRLPRPRPRPWIAPRP | -0.181 |
| RRIRFRPPRLPRPRPRPNMVPRP | -0.124 |
| RRIRNRPPRLPRPRPRPVWGPRP | 0.283 |
| RRIRCRPPRLPRPRPRPWLCPRP | -0.182 |

| Sequence | shrunken log2 fold change |
| --- | --- |
| RRIRHRPPRLPRPRPRPHNLPRP | 0.0201 |
| RRIRTRPPRLPRPRPRPSGRPRP | 0.0348 |
| RRIRPRPPRLPRPRPRPLLTPRP | 0.252 |
| RRIRWRPPRLPRPRPRPIEYPRP | -0.224 |
| RRIRSRPPRLPRPRPRPSNYPRP | -0.869 |
| RRIRCRPPRLPRPRPRPNDLPRP | 0.0432 |
| RRIRFRPPRLPRPRPRPNPYPRP | -0.238 |
| RRIRERPPRLPRPRPRPNDKPRP | -0.507 |
| RRIRYRPPRLPRPRPRPCCDPRP | -0.479 |
| RRIRMRPPRLPRPRPRPIAHPRP | -0.0202 |
| RRIRPRPPRLPRPRPRPLGRPRP | 0.0841 |
| RRIRWRPPRLPRPRPRPVYEPRP | -0.00561 |
| RRIRVRPPRLPRPRPRPDYEPRP | 0.0678 |
| RRIRLRPPRLPRPRPRPCIGPRP | -0.147 |
| RRIRERPPRLPRPRPRPPVQPRP | -0.122 |
| RRIRPRPPRLPRPRPRPAFNPRP | -0.0727 |
| RRIRCRPPRLPRPRPRPVFMPRP | -0.359 |
| RRIRGRPPRLPRPRPRPKWKPRP | 0.202 |
| RRIRYRPPRLPRPRPRPFCLPRP | -1.22 |
| RRIRDRPPRLPRPRPRPCCAPRP | 0.58 |
| RRIRERPPRLPRPRPRPPQHPRP | 0.128 |
| RRIRKRPPRLPRPRPRPQTYPRP | -0.021 |
| RRIRERPPRLPRPRPRPHGRPRP | 0.0279 |
| RRIRLRPPRLPRPRPRPPKWPRP | 0.532 |
| RRIRLRPPRLPRPRPRPMGRPRP | 0.0605 |

| Sequence | shrunken log2 fold change |
| --- | --- |
| RRIRVRPPRLPRPRPRPIGMPRP | 0.211 |
| RRIRLRPPRLPRPRPRPAIRPRP | -0.111 |
| RRIRWRPPRLPRPRPRPHYQPRP | -0.00398 |
| RRIRYRPPRLPRPRPRPSGLPRP | -0.078 |
| RRIRPRPPRLPRPRPRPNFCPRP | 0.257 |
| RRIRYRPPRLPRPRPRPHFYPRP | -0.662 |
| RRIRNRPPRLPRPRPRPKLCPRP | 0.163 |
| RRIRKRPPRLPRPRPRPLMIPRP | -0.171 |
| RRIRSRPPRLPRPRPRPWWLPRP | 0.0261 |
| RRIRYRPPRLPRPRPRPANIPRP | -0.0107 |
| RRIRLRPPRLPRPRPRPGRFPRP | 0.226 |
| RRIRFRPPRLPRPRPRPYAVPRP | -0.419 |
| RRIRGRPPRLPRPRPRPSKWPRP | -0.158 |
| RRIRDRPPRLPRPRPRPGSGPRP | 0.499 |
| RRIRTRPPRLPRPRPRPRQQPRP | 0.349 |
| RRIRIRPPRLPRPRPRPHQSPRP | -0.406 |
| RRIRNRPPRLPRPRPRPRLHPRP | 0.0921 |
| RRIRKRPPRLPRPRPRPIECPRP | -0.0298 |
| RRIRGRPPRLPRPRPRPYQRPRP | 0.189 |
| RRIRIRPPRLPRPRPRPAFYPRP | -0.387 |
| RRIRERPPRLPRPRPRPSCWPRP | 0.101 |
| RRIRIRPPRLPRPRPRPCVVPRP | -0.00586 |
| RRIRFRPPRLPRPRPRPDTIPRP | -0.498 |
| RRIRVRPPRLPRPRPRPAQQPRP | 0.375 |
| RRIRYRPPRLPRPRPRPDYMPRP | -0.761 |
